In US20090170750A1 (Novo Nordisk, published 2009):
Bridges are numbered along the chain shown (N, C = ends). Where no end group is shown, it is not given here.

Legend:
[1] = target: human IGF-1 receptor (human) (UniProt P08069); experiment: competition with 125I-IGF-1 (SPA)
[2] = target: purified recombinant human insulin receptor-exon 11 (human) (UniProt P06213); experiment: competition with 125I-insulin (SPA)
[3] = target: T1, purified recombinant human insulin receptor-exon 11 (human, UniProt P06213-2 28-1370, limits assumed); experiment: competition with 125I-insulin (SPA)
T1 construct: also called IR
Procedure: A total of 100 μl was then added and a dilution series is made from appropriate samples. To the dilution series was then added 100 μl of reagent mix and the samples were incubated for 16 hours while gently shaken. The phases were the then separated by centrifugation for 1 min and the plates counted in a Topcounter. The binding data were fitted using the nonlinear regression algorithm in the GraphPad Prism 2.01 (GraphPad Software, San Diego, Calif.).

Molecule	IR, binding relative to human insulin [2] [%]	other results
single-chain insulin B(1-29)-TRLSQGR-A(1-21) (from UniProt P01308 25-53; P01308 90-110) (ligand)	–	Human IGF-1 receptor binding [1]: 0.05%
single-chain insulin B(1-29)-TRSSNGR-A(1-21) (from UniProt P01308 25-53; P01308 90-110) (ligand)	–	Human IGF-1 receptor binding [1]: 0.1%
single-chain insulin PAK 1708, connecting peptide VGSRSGK (from UniProt P01308 25-53; P01308 90-110) (ligand)	–	Human IGF-1 receptor binding relative to human insulin [1]: 0.2%
single-chain insulin PAK 1709, connecting peptide VGRSSGK (SEQ ID NO:105) (from UniProt P01308 25-53; P01308 90-110) (ligand)	–	Human IGF-1 receptor binding relative to human insulin [1]: 0.5%
single-chain insulin PAK 1766, connecting peptide VGSSSGK (from UniProt P01308 25-53; P01308 90-110) (ligand)	–	Human IGF-1 receptor binding relative to human insulin [1]: 0.05%
single-chain insulin PAK 1879, connecting peptide VGLSSGQ [B29A_A18Q] (from UniProt P01308 25-53; P01308 90-110) (ligand)	92	–
single-chain insulin PAK 1880, connecting peptide VGLSSGQ [B1G_B3Q_A18Q_A21G] (from UniProt P01308 25-53; P01308 90-110) (ligand)	54	–
single-chain insulin PAK 1884, connecting peptide VGLSSGQ [B29A_A8K_A18Q] (from UniProt P01308 25-53; P01308 90-110) (ligand)	89	–
single-chain insulin PAK 1891, connecting peptide TGLGSGQ [B10A_A18Q] (from UniProt P01308 25-53; P01308 90-110) (ligand)	34	–
single-chain insulin PAK 1892, connecting peptide TGLGSGQ [desB1_B3Q_B10A_A18Q] (from UniProt P01308 26-53; P01308 90-110) (ligand)	38	–
single-chain insulin PAK 1893, connecting peptide TGLGSGQ [B10Q_A18Q] (from UniProt P01308 25-53; P01308 90-110) (ligand)	51	–
single-chain insulin PAK 1894, connecting peptide TGLGSGQ [desB1_B3Q_B10Q_A18Q] (from UniProt P01308 26-53; P01308 90-110) (ligand)	38	–
single-chain insulin PAK 1638077, connecting peptide VGSSRGK (from UniProt P01308 25-53; P01308 90-110) (ligand)	–	Human IGF-1 receptor binding relative to human insulin [1]: 0.1%
single-chain insulin PAK 1687033, connecting peptide VGSYSGK (from UniProt P01308 25-53; P01308 90-110) (ligand)	–	Human IGF-1 receptor binding relative to human insulin [1]: 0.2%
single-chain insulin PAK 1687046, connecting peptide VGSMSGK (from UniProt P01308 25-53; P01308 90-110) (ligand)	–	Human IGF-1 receptor binding relative to human insulin [1]: 0.1%
single-chain insulin PAK 1688007, connecting peptide VGYSSGK (from UniProt P01308 25-53; P01308 90-110) (ligand)	–	Human IGF-1 receptor binding relative to human insulin [1]: 0.2%
single-chain insulin PAK 1688011, connecting peptide VGLSSGK (from UniProt P01308 25-53; P01308 90-110) (ligand)	–	Human IGF-1 receptor binding relative to human insulin [1]: 0.1%
single-chain insulin PAK 1688028, connecting peptide VGMSSGK (SEQ ID NO:106) (from UniProt P01308 25-53; P01308 90-110) (ligand)	–	Human IGF-1 receptor binding relative to human insulin [1]: 0.2%
single-chain insulin PAK 1769013, connecting peptide QVGSSSGK [A18Q_A21G] (from UniProt P01308 25-53; P01308 90-110) (ligand)	33	–

Molecule	IR, binding relative to human insulin [2] [%]	other results
single-chain insulin PAK 1769015, connecting peptide EVGSSSGK [A18Q_A21G] (from UniProt P01308 25-53; P01308 90-110) (ligand)	42	–
single-chain insulin PAK 1769020, connecting peptide SVGSSSGK [A18Q_A21G] (from UniProt P01308 25-53; P01308 90-110) (ligand)	51	–
single-chain insulin PAK 1769027, connecting peptide LVGSSSGK [A18Q_A21G] (from UniProt P01308 25-53; P01308 90-110) (ligand)	68	–
single-chain insulin PAK 1769033, connecting peptide PVGSSSGK [A18Q_A21G] (from UniProt P01308 25-53; P01308 90-110) (ligand)	37	–
single-chain insulin PAK 1769040, connecting peptide VVGSSSGK [A18Q_A21G] (from UniProt P01308 25-53; P01308 90-110) (ligand)	29	–
single-chain insulin PAK 1769053, connecting peptide GVGSSSGK [A18Q_A21G] (from UniProt P01308 25-53; P01308 90-110) (ligand)	37	–
single-chain insulin PAK 1769062, connecting peptide PVGSSSGK [A18Q_A21G] (from UniProt P01308 25-53; P01308 90-110) (ligand)	56	–
single-chain insulin with connecting peptide GGSSGK (SEQ ID NO:116), no PAK number printed (from UniProt P01308 25-53; P01308 90-110) (ligand)	23	–
single-chain insulin with connecting peptide LGSSGK (SEQ ID NO:113), no PAK number printed (from UniProt P01308 25-53; P01308 90-110) (ligand)	49	–
single-chain insulin with connecting peptide QGSSGK (SEQ ID NO:110), no PAK number printed (from UniProt P01308 25-53; P01308 90-110) (ligand)	36	–
single-chain insulin with connecting peptide QGSSGK (SEQ ID NO:115), no PAK number printed (from UniProt P01308 25-53; P01308 90-110) (ligand)	34	–
single-chain insulin with connecting peptide RGSSGK (SEQ ID NO:114), no PAK number printed (from UniProt P01308 25-53; P01308 90-110) (ligand)	54	Human IGF-1 receptor binding relative to human insulin [1]: 0.5%
single-chain insulin with connecting peptide VGHSSGK (SEQ ID NO:108), no PAK number printed (from UniProt P01308 25-53; P01308 90-110) (ligand)	–	Human IGF-1 receptor binding relative to human insulin [1]: 0.15%
single-chain insulin PAK 1896, connecting peptide VGLSSGQ [B29A_A18Q_A22K] (ligand, disulfide 19-56, 42-47, 7-43) FVNQHLCGSHLVEALYLVCGERGFFYTPAVGLSSGQGIVEQCCTSICSLYQLEQYCNK	–	IR, binding relative to human insulin [3]: 38%
single-chain insulin PAK 1861, connecting peptide VGLGKGPGAGK [A18Q_A21G] (ligand) FVNQHLCGSHLVEALYLVCGERGFFYTPKVGLGKGPGAGKGIVEQCCTSICSLYQLEQYCG	–	IR, binding relative to human insulin [3]: 36%
B(1-29)-B27E-B29A-TGLGKGQ-A(1-21)-A18Q Human insulin (PAK1845) (ligand, disulfide 19-56, 42-47, 7-43) FVNQHLCGSHLVEALYLVCGERGFFYEPATGLGKGQGIVEQCCTSICSLYQLEQYCN	–	IR, binding relative to human insulin [3]: 20%
single-chain insulin PAK 1873, connecting peptide KGLSSGQ [B29A_A18Q] (ligand, disulfide 19-56, 42-47, 7-43) FVNQHLCGSHLVEALYLVCGERGFFYTPAKGLSSGQGIVEQCCTSICSLYQLEQYCN	–	IR, binding relative to human insulin [3]: 60%
B(1-29)-B29A-TGLGKGQ-A(1-21)-A18Q Human insulin (PAK1837) (ligand, disulfide 19-56, 42-47, 7-43) FVNQHLCGSHLVEALYLVCGERGFFYTPATGLGKGQGIVEQCCTSICSLYQLEQYCN	–	IR, binding relative to human insulin [3]: 71%
single-chain insulin PAK 1735, connecting peptide VGRSSGK [A21G] (ligand, disulfide 19-56, 42-47, 7-43) FVNQHLCGSHLVEALYLVCGERGFFYTPKVGRSSGKGIVEQCCTSICSLYQLENYCG	–	IR, binding relative to human insulin [3]: 143%
